Publication PMC9328939, “A Randomized Double‐Blind Placebo‐Controlled First‐In‐Human Phase 1 Trial of TransCon PTH in Healthy Adults” (Journal of Bone and Mineral Research, 2020)
“And” between values parts separate entries of the source, which are not always exact repeats. Identical values can stand only once.

Test system: healthy adults
Assay: Safety and tolerability: adverse events in SAD and MAD cohorts
Conditions: for Dizziness, light-headedness (including postural/orthostatic dizziness, syncope, presyncope) (%) / Tachycardia/palpitations (%): at least possibly related
[1] = MAD cohorts administered TransCon PTH (n = 50)
[2] = MAD, 3.5 μg/day s.c. x 10 days, n = 8, number of subjects (% of cohort)
[3] = MAD, 3.5 μg/day x 10 days, n = 8, number of subjects (%)
[4] = MAD, 7 μg/day s.c. x 10 days, n = 8, number of subjects (% of cohort)
[5] = MAD, 7 μg/day x 10 days, n = 8, number of subjects (%)
[6] = MAD, 12 μg/day s.c. x 10 days, n = 10, number of subjects (% of cohort)
[7] = MAD, 16 μg/day s.c. x 10 days, n = 8, number of subjects (% of cohort)
[8] = MAD, 16 μg/day x 10 days, n = 8, number of subjects (%)
[9] = MAD, 20 μg/day s.c. x 10 days, n = 8, number of subjects (% of cohort)
[10] = MAD, 20 μg/day x 10 days, n = 8, number of subjects (%)
[11] = MAD, 24 μg/day s.c. x 10 days, n = 8, number of subjects (% of cohort)
[12] = MAD, 24 μg/day x 10 days, n = 8, number of subjects (%)
[13] = MAD, Total of all TransCon PTH doses (3.5 to 24 μg/day), n = 50, number of subjects (%)
[14] = MAD, Total of all TransCon PTH doses, n = 50, number of subjects (%)
[15] = SAD cohorts administered TransCon PTH (n = 56)
[16] = SAD, Total of all TransCon PTH doses (3.5 to 124 μg), n = 56, number of subjects (%)

Description: Subjects attended a screening visit; those who met eligibility criteria were randomly assigned to a SAD or MAD cohort (n = 10/cohort; eight active and two placebo) and received a single or multiple dose(s) of TransCon PTH, respectively, via a syringe and 31G 8‐mm needle s.c. to the abdomen. […] Multiple TransCon PTH doses administered daily for 10 days ranged from 3.5 to 24 μg PTH(1‐34)/day. Throughout drug administration and for 4 days following the final dose, subjects remained housed for laboratory tests and safety monitoring.
At screening, demographic information, medical history, and concomitant medications, vital signs with height and weight, hematology, blood chemistry (including sCa, sP, and sMg), intact endogenous PTH(1‐84), 1,25‐dihydroxyvitamin D, and urine samples were collected. In addition, a limited physical examination and electrocardiogram (ECG) were performed.
Via regular vital sign checks, physical examinations, and safety laboratory tests, subjects were also monitored for adverse events (AEs) throughout the trial, including injection site reactions (erythema, ecchymosis, edema, pruritus, and pain).

Substance: TransCon PTH: long-acting, essentially inactive prodrug: PTH(1-34) transiently bound to an inert 40 kDa mPEG carrier via a proprietary autocleaving linker
- treatment-emergent AE: catheter site phlebitis [1]: 8%
- treatment-emergent AE: dizziness [1]: 10%
- treatment-emergent AE: headache [1]: 12%
- treatment-emergent AE: musculoskeletal pain [1]: 6%
- treatment-emergent AE: palpitations [1]: 8%
- treatment-emergent AE: postural dizziness [1]: 6%
- treatment-emergent AE: presyncope [1]: 6%
- Any AE (%) [2]: 6 (75.0) %
- Any SAE (%) [2]: 0 (0) %
- Any drug-related AE (%) [2]: 1 (12.5) %
- Any moderate or severe AE (%) [2]: 2 (25.0) %
- Dizziness, light-headedness (including postural/orthostatic dizziness, syncope, presyncope) (%) [3]: 1 (12.5) %
- Tachycardia/palpitations (%) [3]: 1 (12.5) %
- Any AE (%) [4]: 6 (75.0) %
- Any SAE (%) [4]: 0 (0) %
- Any drug-related AE (%) [4]: 2 (25.0) %
- Any moderate or severe AE (%) [4]: 3 (37.5) %
- Dizziness, light-headedness (including postural/orthostatic dizziness, syncope, presyncope) (%) [5]: 1 (12.5) %
- Tachycardia/palpitations (%) [5]: 0 (0.0) %
- Any AE (%) [6]: 7 (70.0) %
- Any SAE (%) [6]: 1 (10.0) %
- Any drug-related AE (%) [6]: 3 (30.0) %
- Any moderate or severe AE (%) [6]: 2 (20.0) %
- Tachycardia/palpitations (%) (MAD, 12 μg/day x 10 days, n = 10, number of subjects (%)): 0 (0.0) %
- Any AE (%) [7]: 4 (50.0) %
- Any SAE (%) [7]: 0 (0) %
- Any drug-related AE (%) [7]: 2 (25.0) %
- Any moderate or severe AE (%) [7]: 1 (12.5) %
- Dizziness, light-headedness (including postural/orthostatic dizziness, syncope, presyncope) (%) [8]: 0 (0.0) %
- Tachycardia/palpitations (%) [8]: 0 (0.0) %
- Any AE (%) [9]: 3 (37.5) %
- Any SAE (%) [9]: 0 (0) %
- Any drug-related AE (%) [9]: 2 (25.0) %
- Any moderate or severe AE (%) [9]: 1 (12.5) %
- Dizziness, light-headedness (including postural/orthostatic dizziness, syncope, presyncope) (%) [10]: 0 (0.0) %
- Tachycardia/palpitations (%) [10]: 1 (12.5) %
- subjects reporting vasodilatory or potentially vasodilatory AEs (MAD, 24 μg PTH(1-34)/day cohort, four of eight, placebo two of two (100%)): 50%
- albumin-adjusted sCa in a subject with symptomatic hypercalcemia (MAD, 24 μg PTH(1-34)/day, one of three males, discontinued dosing after the sixth dose): 11.68 mg/dL
- albumin-adjusted sCa in an asymptomatic subject on day 11 (MAD, 24 μg PTH(1-34)/day, single subject): 11.76 mg/dL
- Any AE (%) [11]: 7 (87.5) %
- Any SAE (%) [11]: 0 (0) %
- Any drug-related AE (%) [11]: 6 (75.0) %
- Any moderate or severe AE (%) [11]: 5 (62.5) %
- Dizziness, light-headedness (including postural/orthostatic dizziness, syncope, presyncope) (%) [12]: 2 (25.0) %
- Tachycardia/palpitations (%) [12]: 3 (37.5) %
- Any AE (%) [13]: 66% and 33 (66.0) %
- Any SAE (%) [13]: 1 (2.0) %
- Any drug-related AE (%) [13]: 16 (32.0) %
- Any moderate or severe AE (%) [13]: 14 (28.0) %
- Dizziness, light-headedness (including postural/orthostatic dizziness, syncope, presyncope) (%) [14]: 5 (10.0) %
- Tachycardia/palpitations (%) [14]: 5 (10.0) %
- maximum tolerable dose (MTD) (MAD, healthy volunteers, daily s.c. x 10 days): 20 μg PTH(1-34)/day
- discontinuation of the trial due to an AE (SAD and MAD cohorts): No subjects
- drug-related SAEs or severe AEs (SAD and MAD cohorts): no drug‐related SAEs or severe AEs
- physical examination, ECG, standard safety laboratory tests (SAD and MAD cohorts): no safety concerns were detected
- tolerability (SAD and MAD cohorts, s.c.): generally well tolerated
- treatment-emergent AE: dizziness [15]: 10.7%
- treatment-emergent AE: headache [15]: 7.1%
- treatment-emergent AE: postural dizziness [15]: 5.4%
- maximum tolerable dose (MTD) (SAD cohorts, up to the top dose of 124 μg PTH(1-34)): No MTD was observed
- Any AE (%) [16]: 41.1% and 23 (41.1) %
- Any SAE (%) [16]: 1 (1.8) %
- Any drug-related AE (%) [16]: 14 (25.0) %
- Any moderate or severe AE (%) [16]: 6 (10.7) %
- Dizziness, light-headedness (including postural/orthostatic dizziness, syncope, presyncope) (%) (SAD, Total of all TransCon PTH doses, n = 56, number of subjects (%)): 4 (7.1) %
